Earlier results as cited in PMC7419686.
pKd: −log10 of the molar value.

Target: MDMX (Homo sapiens) (UniProt O15151)
Sequence (O15151 whole entry): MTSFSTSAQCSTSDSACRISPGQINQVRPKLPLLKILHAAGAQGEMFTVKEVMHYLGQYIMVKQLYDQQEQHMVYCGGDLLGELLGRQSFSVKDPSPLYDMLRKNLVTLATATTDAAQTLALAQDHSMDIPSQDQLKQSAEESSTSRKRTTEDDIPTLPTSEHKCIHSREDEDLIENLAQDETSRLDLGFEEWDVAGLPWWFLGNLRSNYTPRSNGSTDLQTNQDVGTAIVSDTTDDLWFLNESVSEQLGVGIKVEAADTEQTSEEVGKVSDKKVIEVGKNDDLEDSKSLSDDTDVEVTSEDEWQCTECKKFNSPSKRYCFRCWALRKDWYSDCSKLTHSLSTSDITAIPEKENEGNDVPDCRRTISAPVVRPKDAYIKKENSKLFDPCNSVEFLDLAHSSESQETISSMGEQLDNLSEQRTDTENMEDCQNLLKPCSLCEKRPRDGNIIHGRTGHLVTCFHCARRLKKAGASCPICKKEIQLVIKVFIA

- pKd: 8.64
Substance: SAH-p53-8 (from UniProt P04637)
